From US20140221622A1 come the findings set out here.

In this assay the target is EGFR on U87MG.de2-7 cells (UniProt P00533). Description: flow cytometry on U87MG.de2-7 cells, Alexa Fluor 488 anti-human IgG Fc. Background: Flow cytometry measures light scatter and fluorescence of single cells or particles in a stream.

B1: DB001 DVD-Ig (CD3 and EGFR) (bispecific antibody)
VH: QVQLQESGPGLVKPSQTLSLTCTVSGYSISSDFAWNWIRQPPGKGLEWMGYISYSGNTRYQPSLKSRITISRDTSKNQFFLKLNSVTAADTATYYCVTAGRGFPYWGQGTLVTVSSASTKGPEVQLVESGGGLVQPGGSLRLSCAASGFTFSTYAMNWVRQAPGKGLEWVGRIRSKYNNYATYYADSVKDRFTISRDDSKNTAYLQMNSLRAEDTAVYYCTRHGNFGNSYVSWFAYWGQGTLVTVSS
VL: DIQMTQSPSSMSVSVGDRVTITCHSSQDINSNIGWLQQKPGKSFKGLIYHGTNLDDGVPSRFSGSGSGTDYTLTISSLQPEDFATYYCVQYAQFPWTFGGGTKLEIKTVAAPSVFIFPPDAQVTQSPSSLSASVGDRVTITCRSSTGAVTTSNYANWVQEKPGKLFKGLIGGTNKRAPGVPSRFSGSGSGTDATLTISSLQPEDFATYFCALWYSNLWVFGGGTKVEIKR
For B1, the EC50 came to 9 nM.

One may read the EC50 as the concentration needed to bring the measured effect to its halfway point.
